Laboratory results taken from patent US20150216795A1 (SANOFI, priority 2012, published 2015).

Experiments:
[1] = test system: patients with metastatic colorectal cancer (MCRC)
Description: Each randomized patient was to be treated until disease progression, death, or unacceptable toxicity.
Treatment arms were evenly balanced for demographics, disease characteristics and prior anti-cancer treatments, including prior exposition to bevacizumab.
Patients received a median of 9 cycles of ZALTRAP/FOLFIRI or 8 cycles of placebo/FOLFIRI.

[2] = test system: patients with metastatic colorectal cancer (MCRC); assay: EFC10262 (VELOUR) randomized double-blind phase 3 study: efficacy (OS, PFS, response rate);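 note: Placebo-controlled comparison, both arms on FOLFIRI every 2 weeks until progression or intolerable toxicity, in patients progressing on or within 6 months after oxaliplatin-based combination chemotherapy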
Description: Each randomized patient was to be treated until disease progression, death, or unacceptable toxicity. […] The predefined statistical significance level for this final analysis was 0.0466 after adjusting the type I error spent for the two interim analyses using the O'Brien-Fleming spending function.
The study included one formal interim analysis, planned for the purpose of efficacy, when 561 death events (65% information time) had occurred. Upon request of the independent Data Monitoring Committee (DMC), an additional interim analysis of OS was performed to provide an early evaluation of the benefit-risk ratio, when 315 death events (36.5% information fraction) had occurred.
A total of approximately 863 deaths were required to detect 20% hazard rate reduction in OS with 90% power using the two-sided log rank test at an overall 0.0499 alpha level. The median survival times was expected to be 11 months for the control group. The overall alpha level was split between overall survival (0.0499) and progression-free survival as a secondary efficacy endpoint (0.0001).
Approximately 1200 patients (i.e. 600 patients per treatment group) were planned to be randomized. Treatment assignment was stratified according to prior therapy with bevacizumab (yes or no), and ECOG performance status (PS) (0 vs 1 vs 2).
The enrolment started in November 2007 and was completed in March 2010. A total of 1226 patients were randomized. […] Treatment arms were evenly balanced for demographics, disease characteristics and prior anti-cancer treatments, including prior exposition to bevacizumab.
Immediately after, patients received irinotecan, 5-FU and leucovorin (FOLFIRI regimen). This treatment was repeated every 2 weeks.
Study 1 was a randomized, double-blind, placebo-controlled study in patients with metastatic colorectal cancer (mCRC) who are resistant to or have progressed during or within 6 months of receiving oxaliplatin-based combination chemotherapy, with or without prior bevacizumab. A total of 1226 patients were randomized (1:1) to receive either ZALTRAP (N=612; 4 mg per kg as a 1 hour intravenous infusion on day 1) or placebo (N=614), in combination with 5-fluorouracil plus irinotecan [FOLFIRI: irinotecan 180 mg per m2 IV infusion over 90 minutes and leucovorin (dl racemic) 400 mg per m^2 intravenous infusion over 2 hours at the same time on day 1 using a Y-line, followed by 5-FU 400 mg per m^2 intravenous bolus, followed by 5-FU 2400 mg per m^2 continuous intravenous infusion over 46-hours]. The treatment cycles on both arms were repeated every 2 weeks. Patients were treated until disease progression or unacceptable toxicity. The primary efficacy endpoint was overall survival. Treatment assignment was stratified by the ECOG performance status (0 versus 1 versus 2) and according to prior therapy with bevacizumab (yes or no).

[3] = adverse reaction, N = 611, listed as ZALTRAP/FOLFIRI
[4] = compilation of clinical and laboratory data, N = 611, listed as ZALTRAP/FOLFIRI
[5] = Kaplan-Meier, IRC, ITT population
[6] = by IRC, evaluable patient population N = 531
[7] = overall survival, Kaplan-Meier, ITT population

## Ziv-aflibercept/Folfiri: ziv-aflibercept 4 mg/kg in combination with FOLFIRI (folinic acid, 5-fluorouracil and irinotecan) given intravenously every 2 weeks
[1]; 1 patient
  Grade 4 hypertension (hypertensive crisis): 0.2%
[1]; 2 patients
  Grade 3 compromised wound healing: 0.3%
  Nephrotic syndrome: 0.5%
[1]; 9 of 611 patients with mCRC
  fistulas (anal, enterovesical, enterocutaneous, colovaginal, intestinal sites): 1.5%
[1]; 11 patients
  Grade 3-4 ATE: 1.8%
[1]; Safety population N = 611
  Patients with any TEAE: 606 (99.2%) number (%) of patients
  Patients with any TEAE leading to death: 37 (6.1%) number (%) of patients
  Patients with any TEAE leading to permanent treatment discontinuation: 164 (26.8%) number (%) of patients
  Patients with any TEAE leading to premature treatment discontinuation: 119 (19.5%) number (%) of patients
  Patients with any grade 3-4 TEAE: 510 (83.5%) number (%) of patients
  Patients with any related TEAE leading to death: 6 (1.0%) number (%) of patients
  Patients with any serious TEAE: 294 (48.1%) number (%) of patients
[1]; Study 1
  Cycle delays >7 days: 60 % of patients
  Infections, Grade 3-4: 12%
  Infections, all grades: 46%
[1]; TEAE, safety population
  Alopecia (PT), All Gr: 26.8 % of patients
  Asthenic condition (HLT), All Gr: 60.4 % of patients
  Asthenic condition (HLT), Gr 3/4: 16.9 % of patients
  Constipation (PT), All Gr: 22.4 % of patients
  Constipation (PT), Gr 3/4: 0.8 % of patients
  Decrease appetite (PT), All Gr: 31.9 % of patients
  Decrease appetite (PT), Gr 3/4: 3.4 % of patients
  Dehydration (PT), All Gr: 9.0 % of patients
  Diarrhea (PT), All Gr: 69.2 % of patients
  Dysphonia (PT), All Gr: 25.4 % of patients
  Epistaxis (PT), All Gr: 27.7 % of patients
  GI and abdominal pains (HLT), All Gr: 34.0 % of patients
  GI and abdominal pains (HLT), Gr 3/4: 5.4 % of patients
  Headache (PT), All Gr: 22.3 % of patients
  Hypertension (grouping), All Gr: 41.4 % of patients
  Hypertension (grouping), Gr 3/4: 19.3 % of patients
  Infections (SOC), All Gr: 46.2 % of patients
  Musculoskeletal & connective pain & discomfort (HLT), All Gr: 23.1 % of patients
  Musculoskeletal & connective pain & discomfort (HLT), Gr 3/4: 1.3 % of patients
  Nausea (PT), All Gr: 53.4 % of patients
  Palmar plantar erythrodysaesthesia (PT), All Gr: 11.0 % of patients
  Palmar plantar erythrodysaesthesia (PT), Gr 3/4: 2.8 % of patients
  Skin hyperpigmentation (PT), All Gr: 8.2 % of patients
  Skin hyperpigmentation (PT), Gr 3/4: 0 % of patients
  Stomatitis & ulceration (HLT), All Gr: 54.8 % of patients
  Stomatitis & ulceration (HLT), Gr 3/4: 13.7 % of patients
  Vomiting (PT), All Gr: 32.9 % of patients
  Weight decrease (PT), All Gr: 31.9 % of patients
  Weight decrease (PT), Gr 3/4: 2.6 % of patients
[1]; adverse reaction, N = 611
  Abdominal Pain Upper, All grades: 11%
  Abdominal Pain Upper, Grades 3-4: 1%
  Abdominal Pain, All grades: 27%
  Abdominal Pain, Grades 3-4: 4%
  Asthenia, All grades: 18%
  Asthenia, Grades 3-4: 5%
  Decreased Appetite, All grades: 32%
  Decreased Appetite, Grades 3-4: 3%
  Dehydration, All grades: 9%
  Diarrhea, All grades: 69%
  Dysphonia, All grades: 25%
  Dyspnea, All grades: 12%
  Epistaxis, All grades: 28%
  Fatigue, All grades: 48%
  Fatigue, Grades 3-4: 13%
  Headache, All grades: 22%
  Headache, Grades 3-4: 2%
  Hemorrhoids, All grades: 6%
  Hemorrhoids, Grades 3-4: 0%
  Hypertension, All grades: 41%
  Hypertension, Grades 3-4: 19%
  Leukopenia, All grades: 78%
  Leukopenia, Grades 3-4: 16%
  Neutropenia, All grades: 67%
  Oropharyngeal Pain, All grades: 8%
  Palmar-Plantar Erythrodysesthesia Syndrome, All grades: 11%
  Palmar-Plantar Erythrodysesthesia Syndrome, Grades 3-4: 3%
  Proctalgia, All grades: 5%
  Rectal Hemorrhage, All grades: 5%
  Rhinorrhea, All grades: 6%
  Rhinorrhea, Grades 3-4: 0%
  Skin Hyperpigmentation, All grades: 8%
  Skin Hyperpigmentation, Grades 3-4: 0%
  Stomatitis, All grades: 50%
  Stomatitis, Grades 3-4: 13%
  Thrombocytopenia, All grades: 48%
  Thrombocytopenia, Grades 3-4: 3%
  Urinary Tract Infection, All grades: 9%
  Weight decreased, All grades: 32%
  Weight decreased, Grades 3-4: 3%
[1]; [3]
  Dehydration, Grades 3-4: 4%
  Diarrhea, Grades 3-4: 19%
  Neutropenia, Grades 3-4: 37%
[1]; among patients developing Grade 3-4 hypertension
  onset of Grade 3-4 hypertension during the first two cycles of treatment: 54%
[1]; [4]
  Proteinuria, All grades: 62%
  Proteinuria, Grades 3-4: 8%
[1]; including gastrointestinal hemorrhage, hematuria, post-procedural hemorrhage
  Grade 3-4 hemorrhagic events: 3%
[1]; laboratory finding, N = 611
  ALT increased, All grades: 50%
  ALT increased, Grades 3-4: 3%
  AST increased, All grades: 62%
  AST increased, Grades 3-4: 3%
  Serum creatinine increased, All grades: 23%
  Serum creatinine increased, Grades 3-4: 0%
[1]; patients with mCRC
  Arterial thromboembolic events (ATE): 2.6%
  Grade 3-4 VTE: 8%
  Grade 3-4 febrile neutropenia: 4%
  Grade 3-4 neutropenic infection/sepsis: 1.5%
  Grade 3 hypertension: 19%
  Pulmonary embolism: 5%
  bleeding/hemorrhage (all grades): 38%
  severe hypersensitivity reactions: 0.3%
  venous thromboembolic events (VTE): 9%
[2]; [5]
  PFS, Probability of surviving (99.99% CI), 3 months: 0.793
  PFS, Probability of surviving (99.99% CI), 6 months: 0.573
  PFS, Probability of surviving (99.99% CI), 9 months: 0.313
  PFS, Probability of surviving (99.99% CI), 12 months: 0.166
  PFS, Probability of surviving (99.99% CI), 18 months: 0.051
[2]; Study 1, IRC
  Progression Free Survival: Number of events, n (%): 393 (64.2%) n (%)
[2]; Study 1, N = 612
  Overall Survival: Number of deaths, n (%): 403 (65.8%) n (%)
[2]; [6]
  Best Overall Response: Not evaluable, %: (4.0%)
  Best Overall Response: Partial response, %: (19.8%)
  Best Overall Response: Progressive disease, %: (10.4%)
  Best Overall Response: Stable disease, %: (65.9%)
  Overall Response: Responders (Complete response or Partial response), %: (19.8%)
[2]; [7]
  Survival probability (95.34% CI), 3 months: 0.931
  Survival probability (95.34% CI), 6 months: 0.819
  Survival probability (95.34% CI), 9 months: 0.687
  Survival probability (95.34% CI), 12 months: 0.561
  Survival probability (95.34% CI), 18 months: 0.385
  Survival probability (95.34% CI), 24 months: 0.280
[2]; patients who received prior bevacizumab
  overall survival HR (95% CI): 0.86
[2]; patients without prior bevacizumab exposure
  overall survival HR (95% CI): 0.79
